In US20260117259A1:
Read-outs that look alike come from different tables or passages of the source.

How the values were obtained:
SOSIP [1] = assay: flow cytometry of murine B cells edited with the VRC26.25 HCDR3, APC-labeled SOSIP trimer against anti-IgM; activation Anti-CD180
[2] = target: ConM SOSIP protein (v8.1ds) modified with the CRF250 V1V2 region (HIV-1); assay: flow cytometry, VRC26.25 HCDR3-edited primary murine B cells, labeled SOSIP against surface IgM
[3] = target: 16055-ConM-v8.1ds SOSIP trimer (HIV-1); assay: as above
[4] = target: ConM SOSIP protein (v8.1ds) modified with the BG505 V1V2 region (HIV-1); assay: as above
ConM-v8.1ds [5] = assay: as above
[6] = target: 16055-ConM-v8.1ds SOSIP trimer (HIV-1); assay: flow cytometry, primary murine B cells edited in the HCDR3, labeled 16055-ConM-v8.1ds SOSIP against surface IgM
SOSIP [7] = assay: flow cytometry of murine B cells edited with the VRC26.25 HCDR3, APC-labeled SOSIP trimer against anti-IgM; activation Low dose LPS + IL4
ConM-8.1ds (GnTI-) = assay: flow cytometry, VRC26.25 HCDR3-edited primary murine B cells, labeled SOSIP against surface IgM
CRF250ConM-v8.1 (GnTI-) = assay: as above
BG505ConM-v8.1 (GnTI-) = assay: as above
ConM-v7 = assay: as above
CRFConM-v8.1ds (GnTI-) = assay: as above
CRF250ConM-v7ds = assay: as above
BG505ConM-v8.1 = assay: as above
[8] = target: ConM SOSIP protein (v8.1ds) modified with the CRF250 V1V2 region (HIV-1); assay: as above; remark: listed apart in the source
CRF250ConM-v7ds (GnTI-) = assay: as above
ConM-v8.1(GnTI-) = assay: as above
ConM-v7ds (GnTI-) = assay: as above
[9] = target: ConM SOSIP protein (v8.1ds) modified with the BG505 V1V2 region (HIV-1); assay: as above; remark: listed apart in the source
BG505ConM-v8.1ds (GnTI-) = assay: as above
ConM-v7ds = assay: as above
ConM-v8.1ds [10] = assay: as above; remark: listed apart in the source
BG505ConM-v7ds (GnTI-) = assay: as above
ConM-v7 (GnTI-) = assay: as above
BG505ConM-v7ds = assay: as above
SOSIP [11] = assay: flow cytometry of murine B cells edited with the VRC26.25 HCDR3, APC-labeled SOSIP trimer against anti-IgM; activation High dose LPS

B-cell receptors of primary murine B cells edited to express the VRC26.25 HCDR3 (antibody)
% of cells above the SOSIP gate line (SOSIP [1]): 4.47% | % of cells in the SOSIP gate [2]: 3.22% | % of cells in the SOSIP gate [3]: 3.83% | % of cells in the SOSIP gate [4]: 3.59% | % of cells in the SOSIP gate (ConM-v8.1ds [5]): 3.62% | % of cells in the SOSIP gate [6]: 4.54% | % of cells above the SOSIP gate line (SOSIP [7]): 4.62% | % of cells in the SOSIP gate (ConM-8.1ds (GnTI-)): 7.68% | % of cells in the SOSIP gate (CRF250ConM-v8.1 (GnTI-)): 5.16% | % of cells in the SOSIP gate (BG505ConM-v8.1 (GnTI-)): 7.41% | % of cells in the SOSIP gate (ConM-v7): 5.57% | % of cells in the SOSIP gate (CRFConM-v8.1ds (GnTI-)): 7.8% | % of cells in the SOSIP gate (CRF250ConM-v7ds): 5.46% | % of cells in the SOSIP gate (BG505ConM-v8.1): 5.19% | % of cells in the SOSIP gate [8]: 6.6% | % of cells in the SOSIP gate (CRF250ConM-v7ds (GnTI-)): 6.33% | % of cells in the SOSIP gate (ConM-v8.1(GnTI-)): 6.89% | % of cells in the SOSIP gate (ConM-v7ds (GnTI-)): 4.48% | % of cells in the SOSIP gate [9]: 5.87% | % of cells in the SOSIP gate (BG505ConM-v8.1ds (GnTI-)): 6.39% | % of cells in the SOSIP gate (ConM-v7ds): 5.51% | % of cells in the SOSIP gate (ConM-v8.1ds [10]): 6.58% | % of cells in the SOSIP gate (BG505ConM-v7ds (GnTI-)): 4.61% | % of cells in the SOSIP gate (ConM-v7 (GnTI-)): 7.31% | % of cells in the SOSIP gate (BG505ConM-v7ds): 5.08% | % of cells above the SOSIP gate line (SOSIP [11]): 3.41%
